Laboratory results reported in patent US20040137000A1 (UNITED BIOMEDICAL, published 2004).
Read-outs that look alike come from different tables or passages of the source.

What was measured:
[1] = target: T1, recombinant soluble CD4 (rsCD4) (UniProt P01730 26-396, limits assumed); assay: ELISA on rsCD4
T1 construct: Bought reagent coated on ELISA plates at 0.25 µg/ml; also called solid-phase rsCD4

[2] = target: T2, CD4 on the surface of host T cells (HIV receptor complex involving CD4) (UniProt P01730 26-458, limits assumed); assay: cell-based or functional assay
[3] = target: T2, CD4 on the surface of host T cells (HIV …); assay: cell-based or functional assay; remark: listed apart in the source

Binder	fold reduction in binding compared to the chimeric antibody [1]	Antibody Conc (µg/ml) at 50% Inhibition; MT-2 microplaque neutralization, HIV-1 TH036 (PBL), clade E [2]	Antibody Conc (µg/ml) at 50% Inhibition; MT-2 microplaque neutralization, HIV-1 UG029 (PBL), clade A [2]	Antibody Conc (µg/ml) at 50% Inhibition; MT-2 microplaque neutralization, HIV-1 VL135 (PBL), clade B [2]	Antibody Conc (µg/ml) at 50% Inhibition; MT-2 microplaque neutralization, HIV-1 MN (H9 cells), clade B [3]	Antibody Conc (µg/ml) at 50% Inhibition; MT-2 microplaque neutralization, HIV-1 TH036 (PBL), clade E [3]	Antibody Conc (µg/ml) at 50% Inhibition; MT-2 microplaque neutralization, HIV-1 UG029 (PBL), clade A [3]	Antibody Conc (µg/ml) at 50% Inhibition; MT-2 microplaque neutralization, HIV-1 UG046 (PBL), clade D [3]	Antibody Conc (µg/ml) at 50% Inhibition; MT-2 microplaque neutralization, HIV-1 UG266 (PBL), clade D [3]	Antibody Conc (µg/ml) at 50% Inhibition; MT-2 microplaque neutralization, HIV-1 VL135 (PBL), clade B [3]	Antibody Conc (µg/ml) at 50% Inhibition; MT-2 microplaque neutralization, HIV-1 ZIM748 (PBL), clade C [3]
deimmunized B4 antibody DIVHv.3/VKv.2 produced by NS0 cells (antibody, human IgG1, V domains shown, Human IgG1 and human kappa constant regions; NS0 cells; also called DIVHv.3/V v.2; DIVH3/VK2) VH: QVQLVQSGAEVKKPGASVKVSCKASGYTFTDYVIHWVKQATGQGLEWIGEIYPGSGSAYSNAKFKDRVTITADKSTNTAYMELRSLRSDDTAVYFCARRGNGTGFAYWGQGTLVTVSS VL: DIVLTQSPASLAVSPGQRATITCKAGQSVDYDGDSYMNWYQQKPGQPPKLLIYVASNLESGIPSRFSGSGSGTDFTLTINPVEENDTATYYCQQSYKDPLTFGQGTKVEIK	< 3 fold	0.7 µg/mL	0.92 µg/mL	0.35 µg/mL	–	–	–	–	–	–	–
murine monoclonal antibody B4 (antibody, V domains shown) VH: QVQLQQSGPELVKPGASVRMSCKASGYTFTDYVIHWVKQRTGQGLEWIGEIYPGSGSAYSNAKFKDKATLTADKSSNTAYMQLSSLTSEDSAVYFCARRGNGTGFAYWGQGTLVTVSA VL: DIVLTQSPASLAVSLGQRATISCKAGQSVDYDGDSYMNWYQQKPGQPPKLLIYVASNLESGIPARFSGSGSGTDFTLNIHPVEEEDAATYYCQQSYKDPLTFGAGTKLELK	–	0.24 µg/mL	0.28 µg/mL	0.17 µg/mL	14 µg/mL	0.25 µg/mL	0.44 µg/mL	0.4 µg/mL	0.4 µg/mL	0.16 µg/mL	0.21 µg/mL
deimmunized B4 antibody DIVHv.2/VKv.1 produced by NS0 cells (antibody, human IgG1, V domains shown, Human IgG1 and human kappa constant regions; NS0 cells; also called DIVHv.2/V v.1; DIVH2/VK1) VH: QVQLVQSGAEVKKPGASVKVSCKASGYTFTDYVIHWVRQATGQGLEWIGEIYPGSGSAYSNAKFKDRVTITADKSTNTAYMELRSLRSDDTAVYFCARRGNGTGFAYWGQGTLVTVSS VL: DIVLTQSPASLAVSLGQRATITCKAGQSVDYDGDSYMNWYQQKPGQPPKLLIYVASNLESGIPARFSGSGSGTDFTLNIHPVEENDAATYYCQQSYKDPLTFGQGTKLEIK	< 3 fold	–	–	–	> 100 µg/mL	0.5 µg/mL	0.79 µg/mL	0.98 µg/mL	1.2 µg/mL	0.53 µg/mL	0.63 µg/mL
deimmunized B4 antibody DIVHv.1/VKv.2 produced by NS0 cells (antibody, human IgG1, V domains shown) VH: QVQLVQSGPELKKPGASVKVSCKASGYTFTDYVIHWVKQATGQGLEWIGEIYPGSGSAYSNAKFKDRVTMTADKSSNTAYMELSSLTSDDTAVYFCARRGNGTGFAYWGQGTLVTVSS VL: DIVLTQSPASLAVSPGQRATITCKAGQSVDYDGDSYMNWYQQKPGQPPKLLIYVASNLESGIPSRFSGSGSGTDFTLTINPVEENDTATYYCQQSYKDPLTFGQGTKVEIK	–	0.51 µg/mL	0.73 µg/mL	0.24 µg/mL	–	–	–	–	–	–	–
deimmunized B4 antibody DIVHv.2/VKv.2 produced by NS0 cells (antibody, human IgG1, V domains shown, Human IgG1 and human kappa constant regions; NS0 cells; also called DIVHv.2/V v.2; DIVH2/VK2) VH: QVQLVQSGAEVKKPGASVKVSCKASGYTFTDYVIHWVRQATGQGLEWIGEIYPGSGSAYSNAKFKDRVTITADKSTNTAYMELRSLRSDDTAVYFCARRGNGTGFAYWGQGTLVTVSS VL: DIVLTQSPASLAVSPGQRATITCKAGQSVDYDGDSYMNWYQQKPGQPPKLLIYVASNLESGIPSRFSGSGSGTDFTLTINPVEENDTATYYCQQSYKDPLTFGQGTKVEIK	< 3 fold	0.63 µg/mL	0.73 µg/mL	0.23 µg/mL	–	–	–	–	–	–	–
deimmunized B4 antibody DIVHv.4/VKv.1 produced by NS0 cells (antibody, human IgG1, V domains shown, Human IgG1 and human kappa constant regions; NS0 cells; also called DIVHv.4/V v.1) VH: QVQLVQSGAEVKKPGASVKVSCKASGYTFTDYVIHWVRQATGQGLEWIGEIYPGSGSAYSNSKFKDRVTITADKSTNTAYMELRSLRSDDTAVYFCARRGNGTGFAYWGQGTLVTVSS VL: DIVLTQSPASLAVSLGQRATITCKAGQSVDYDGDSYMNWYQQKPGQPPKLLIYVASNLESGIPARFSGSGSGTDFTLNIHPVEENDAATYYCQQSYKDPLTFGQGTKLEIK	< 3 fold	–	–	–	> 100 µg/mL	0.35 µg/mL	0.35 µg/mL	1.1 µg/mL	7 µg/mL	0.26 µg/mL	0.28 µg/mL
deimmunized B4 antibody DIVHv.2/VKv.3 produced by NS0 cells (antibody, human IgG1, V domains shown, Human IgG1 and human kappa constant regions; NS0 cells; also called DIVHv.2/V v.3; DIVH2/VK3) VH: QVQLVQSGAEVKKPGASVKVSCKASGYTFTDYVIHWVRQATGQGLEWIGEIYPGSGSAYSNAKFKDRVTITADKSTNTAYMELRSLRSDDTAVYFCARRGNGTGFAYWGQGTLVTVSS VL: DIVLTQSPASLAVSPGQRATITCKAGQSVDYDGDSYMNWYQQKPGQPPKLLIYVASNLESGIPSRFSGSGSGTDFTLTINPVEENDTATYYCQQSYKDPLAFGPGTKVEIK	5 fold	0.62 µg/mL	1.2 µg/mL	0.67 µg/mL	–	–	–	–	–	–	–
deimmunized B4 antibody DIVHv.1/VKv.1 produced by NS0 cells (antibody, human IgG1, V domains shown) VH: QVQLVQSGPELKKPGASVKVSCKASGYTFTDYVIHWVKQATGQGLEWIGEIYPGSGSAYSNAKFKDRVTMTADKSSNTAYMELSSLTSDDTAVYFCARRGNGTGFAYWGQGTLVTVSS VL: DIVLTQSPASLAVSLGQRATITCKAGQSVDYDGDSYMNWYQQKPGQPPKLLIYVASNLESGIPARFSGSGSGTDFTLNIHPVEENDAATYYCQQSYKDPLTFGQGTKLEIK	–	–	–	–	> 100 µg/mL	0.31 µg/mL	0.47 µg/mL	2.1 µg/mL	0.82 µg/mL	0.21 µg/mL	0.45 µg/mL
deimmunized B4 antibody DIVHv.1/VKv.3 produced by NS0 cells (antibody, human IgG1, V domains shown) VH: QVQLVQSGPELKKPGASVKVSCKASGYTFTDYVIHWVKQATGQGLEWIGEIYPGSGSAYSNAKFKDRVTMTADKSSNTAYMELSSLTSDDTAVYFCARRGNGTGFAYWGQGTLVTVSS VL: DIVLTQSPASLAVSPGQRATITCKAGQSVDYDGDSYMNWYQQKPGQPPKLLIYVASNLESGIPSRFSGSGSGTDFTLTINPVEENDTATYYCQQSYKDPLAFGPGTKVEIK	–	0.77 µg/mL	1 µg/mL	0.39 µg/mL	–	–	–	–	–	–	–
deimmunized B4 antibody DIVHv.4/VKv.2 produced by NS0 cells (antibody, human IgG1, V domains shown, Human IgG1 and human kappa constant regions; NS0 cells; also called DIVHv.4/V v.2) VH: QVQLVQSGAEVKKPGASVKVSCKASGYTFTDYVIHWVRQATGQGLEWIGEIYPGSGSAYSNSKFKDRVTITADKSTNTAYMELRSLRSDDTAVYFCARRGNGTGFAYWGQGTLVTVSS VL: DIVLTQSPASLAVSPGQRATITCKAGQSVDYDGDSYMNWYQQKPGQPPKLLIYVASNLESGIPSRFSGSGSGTDFTLTINPVEENDTATYYCQQSYKDPLTFGQGTKVEIK	< 3 fold	0.32 µg/mL	0.48 µg/mL	0.3 µg/mL	–	–	–	–	–	–	–
deimmunized B4 antibody DIVHv.3/VKv.3 produced by NS0 cells (antibody, human IgG1, V domains shown, Human IgG1 and human kappa constant regions; NS0 cells; also called DIVHv.3/V v.3; DIVH3/VK3) VH: QVQLVQSGAEVKKPGASVKVSCKASGYTFTDYVIHWVKQATGQGLEWIGEIYPGSGSAYSNAKFKDRVTITADKSTNTAYMELRSLRSDDTAVYFCARRGNGTGFAYWGQGTLVTVSS VL: DIVLTQSPASLAVSPGQRATITCKAGQSVDYDGDSYMNWYQQKPGQPPKLLIYVASNLESGIPSRFSGSGSGTDFTLTINPVEENDTATYYCQQSYKDPLAFGPGTKVEIK	5 fold	0.44 µg/mL	1.1 µg/mL	0.62 µg/mL	–	–	–	–	–	–	–
deimmunized B4 antibody DIVHv.3/VKv.1 produced by NS0 cells (antibody, human IgG1, V domains shown, Human IgG1 and human kappa constant regions; NS0 cells; also called DIVHv.3/V v.1; DIVH3/VK1) VH: QVQLVQSGAEVKKPGASVKVSCKASGYTFTDYVIHWVKQATGQGLEWIGEIYPGSGSAYSNAKFKDRVTITADKSTNTAYMELRSLRSDDTAVYFCARRGNGTGFAYWGQGTLVTVSS VL: DIVLTQSPASLAVSLGQRATITCKAGQSVDYDGDSYMNWYQQKPGQPPKLLIYVASNLESGIPARFSGSGSGTDFTLNIHPVEENDAATYYCQQSYKDPLTFGQGTKLEIK	< 3 fold	–	–	–	> 100 µg/mL	0.58 µg/mL	0.63 µg/mL	0.99 µg/mL	2.2 µg/mL	0.26 µg/mL	0.42 µg/mL
